Series [1] relates to anti-inosine antibody Ab10. As to the kind of experiment: ELONA.
Series [2] relates to Ab05 randomly labeled with DNA adapter (HyNic). As to the kind of experiment: ELONA. Conditions: m6A at position 9; random HyNic labeling.
Series [3] concerns anti-m6A antibody Ab01. Briefly: ELONA.
Series [4] relates to anti-m6A antibody Ab02. Briefly: ELONA.
The test system of series [5] is anti-m6A antibody Ab05. Briefly: ELONA.
For series [6], the target named is APOBEC3A (E109A/E109Q as variously stated), no fusion E109A (Homo sapiens) (UniProt P31941). Briefly: cleavage_in_vitro. To be noted: USER assay, 10 mM MgCl2, pH 7, 37C.
Chain of APOBEC3A (E109A/E109Q as variously stated), no fusion E109A (Homo sapiens) (P31941 whole entry E109A, the tested form may be a part): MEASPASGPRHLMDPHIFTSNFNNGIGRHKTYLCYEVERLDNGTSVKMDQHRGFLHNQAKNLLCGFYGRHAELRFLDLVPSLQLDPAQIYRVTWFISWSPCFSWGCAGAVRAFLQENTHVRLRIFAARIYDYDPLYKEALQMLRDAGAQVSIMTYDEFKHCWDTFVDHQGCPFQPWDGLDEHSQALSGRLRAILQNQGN
Series [7] concerns anti-m5C antibody Ab16. Briefly: ELONA.
For series [8], the system named is anti-pseudouridine antibody Ab11. As to the kind of experiment: ELONA. Conditions: unmodified control.
For series [9], the system named is anti-pseudouridine antibody Ab19. As to the kind of experiment: ELONA. Conditions: unmodified control.
Setting [10] is: m6A at position 9, plate ELISA, avidity, stated only as subnanomolar.

Regarding “NNNNNNNNINNNNNNNN [inosine degenerate RNA (SEQ ID NO: 2 in Table 4)]”, the Kd in [1] (inosine at position 9, plate ELISA, avidity, stated only as subnanomolar) was < 1 nM.

Regarding “NNNNNNNNANNNNNNNN [m6A degenerate RNA (SEQ ID NO: 1)]”, in series [2], the binding signal (fold loss of KD vs unlabeled Ab05) was > 15. Moreover, the Kd is < 1 nM in series [3] (m6A at position 9, plate ELISA, immobilised RNA, avidity, stated only as subnanomolar, 22C); < 1 nM in [4] (setting [10]); < 1 nM in series [5] (setting [10]).

For “FAM-DNA oligonucleotide with a single central C”, in [6], the activity (fold vs APOBEC1) was > 10.

In the case of “NNNNNNNNNNNNNNNN [unmodified degenerate reference RNA (SEQ ID NO: 5)]”, the binding signal (fold weaker than cognate) in [1] (unmodified control) is > 100; in [7] (unmodified control), > 100; in [3] (unmodified control), > 100; in series [4] (unmodified control), > 100; in [5] (unmodified control) it was > 100; in series [8], 10. Besides, the binding signal (fold weaker than cognate) in series [9] is 10.

On to “NNNNNNNNCNNNNNNNN [m5C degenerate RNA (SEQ ID NO: 4)]”, for which the Kd in series [7] (m5C at position 9, plate ELISA, avidity, stated only as subnanomolar) is < 1 nM.
